# Source: IntAct's records for PubMed 15916946
# B1: Serine/threonine-protein kinase tousled-like 1 (Caenorhabditis elegans), P34314 (parent)
# chain: MSMLSMDGIVAGGGSSSGGGERSFVLEQKMFNTGPQNKALPTVQSSGSSSNHAPIVGESPLGTVSSTMATGDTGRVGNVTYMSSGMLGATQFMPQNSSHPSTSVMMQQVPPQNGGATRSSPTEMQQCMQAMSEDSIEMRDYNSGVHHMHPHQMQMQQQQQHHQQQYNMSYHNHQQQMQQMHYHQQQQQYQQQQAQHHQMYAPQIQQQQQQPQQQSQQQSAQQPQQSSAALQHVNESSNLSSAGSISDREPEQHGGTPQRPTAPQSSTATDKKTRKRRKAGPTEDQATPKQERKITEFMKVGGEVASGNSVARCLLTEYHQNQGSPKRQPAVQQNGSNSYDSQQQQPQMNQHEMQNSYWGVATPSLGVNNRGTPTPTQQQHYSSDSNSNSNQSPPGQGNQSGRMVRTIDEETQTDSSLSQANPQNADEVAKMNRIIEDHRRQIEELNSKNSLERRKNEASKETIKRLLIDKNQIERKALRDKTAADSPRIGCFKTTRTGDSFRDQWVDGWAFAEMDKKTEQINAERNEIASASALLKKRKPLGIGKEPKRPQAVNSQNDSNGMQPSTSSNTNGDDAIFRRPEEPKEIQYQEYIELDEIYKLRREHLRKEETDLSMEKERLEKEKQHHVRELKRASNESASQFNDHRLLHKRYLMLNLLGKGGFSEVWKAFDIEENRYVACKIHHVNKDWKEEKKANYVKHAMREKDIHKSLDHCRIVKQYDLLTIDNHSFCTVLEYVPGNDLDFYLKQNRSISEKEARSIIMQVVSALVYLNEKSTPIIHYDLKPANILLESGNTSGAIKITDFGLSKIMEGESDDHDLGIELTSQFAGTYWYLPPETFIVPPPKITCKVDVWSIGVIFYQCIYGKKPFGNDLTQQKILEYNTIINAREVSFPSKPQVSSAAQDFIRRCLQYRKEDRADVFELAKHELFRPRGAIRASVAGSLLLVIITLCQHSNRSEDRLCVSNV
# partner: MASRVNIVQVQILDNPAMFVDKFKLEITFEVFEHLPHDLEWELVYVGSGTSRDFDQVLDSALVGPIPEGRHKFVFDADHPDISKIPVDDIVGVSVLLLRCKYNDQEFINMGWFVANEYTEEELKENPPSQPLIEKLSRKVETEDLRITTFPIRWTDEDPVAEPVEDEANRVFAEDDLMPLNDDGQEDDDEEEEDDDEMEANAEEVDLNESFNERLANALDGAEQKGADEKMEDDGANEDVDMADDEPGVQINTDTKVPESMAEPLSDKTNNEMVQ
# Variants of: B1
# Conditions: with asf1_caeel unc-85, Q19326
row,Variant,effect of a mutation on the interaction
1,S634A,increasing interaction
2,S634E,increasing interaction
